{"source": "paper PMC2908503", "binders": {"B1": {"name": "DNApal (dsDNA)", "DNA 1": "CCCTGCGCAGGG", "DNA 2": "CCCTGCGCAGGG"}}, "assay_in_all_cases": "NMR titration", "key": {"MLL CXXC M1200A": {"target": "MLL CXXC M1200A (human, UniProt Q03164 1147-1203, M1200A)", "sequence (Q03164 1147-1203 M1200A)": "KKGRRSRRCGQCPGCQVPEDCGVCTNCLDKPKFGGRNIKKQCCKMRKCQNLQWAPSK"}, "MLL CXXC domain WT": {"target": "MLL CXXC domain WT (human, UniProt Q03164 1147-1203)", "sequence (Q03164 1147-1203)": "as the sequence (Q03164 1147-1203 M1200A) above, with A54M counted along it"}, "MLL CXXC C1188A": {"target": "MLL CXXC C1188A (human, UniProt Q03164 1147-1203, C1188A)", "sequence (Q03164 1147-1203 C1188A)": "as the sequence (Q03164 1147-1203 M1200A) above, with C42A, A54M counted along it"}, "MLL CXXC Q1187A": {"target": "MLL CXXC Q1187A (human, UniProt Q03164 1147-1203, Q1187A)", "sequence (Q03164 1147-1203 Q1187A)": "as the sequence (Q03164 1147-1203 M1200A) above, with Q41A, A54M counted along it"}, "MLL CXXC R1150A": {"target": "MLL CXXC R1150A (human, UniProt Q03164 1147-1203, R1150A)", "sequence (Q03164 1147-1203 R1150A)": "as the sequence (Q03164 1147-1203 M1200A) above, with R4A, A54M counted along it"}, "MLL CXXC L1197A": {"target": "MLL CXXC L1197A (human, UniProt Q03164 1147-1203, L1197A)", "sequence (Q03164 1147-1203 L1197A)": "as the sequence (Q03164 1147-1203 M1200A) above, with L51A, A54M counted along it"}}, "data": [{"binder": "B1", "values": [{"measurement": "binding result", "setting": "MLL CXXC M1200A", "value": "binds"}, {"measurement": "Kd", "setting": "MLL CXXC domain WT", "value": 44, "unit": "µM"}, {"measurement": "binding result", "setting": "MLL CXXC C1188A", "value": "binds"}, {"measurement": "binding signal", "setting": "MLL CXXC Q1187A", "value": 6, "unit": "fold higher Kd vs WT"}, {"measurement": "binding signal", "setting": "MLL CXXC R1150A", "value": "5 fold decrease in binding vs WT"}, {"measurement": "binding signal", "setting": "MLL CXXC L1197A", "value": "4 fold decrease in binding vs WT"}]}]}
